The values below come from US20260347491.

The experiment addresses human CD32b (FcgRIIb) (human) (UniProt P31994). As to the kind of experiment: FACS.

human CD32b (FcgRIIb) (human), sequence (P31994 46-217): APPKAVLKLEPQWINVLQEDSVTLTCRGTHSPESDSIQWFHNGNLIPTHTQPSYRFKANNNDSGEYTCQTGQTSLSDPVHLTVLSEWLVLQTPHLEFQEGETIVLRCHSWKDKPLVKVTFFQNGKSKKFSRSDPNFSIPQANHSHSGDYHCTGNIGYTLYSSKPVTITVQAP

The EC50 is the concentration needed to bring the measured effect to its halfway point. A higher EC50 goes with lower potency in that assay. Substance Trastuzumab (full) returned a concentration giving a half-maximal response (EC50) of 14.1 nM.

As to Pertuzumab (full), the EC50 came out at 1.35 nM.
